{"source": "paper PMC5589264", "about": "“Reversible unfolding of infectious prion assemblies reveals the existence of an oligomeric elementary brick” (PLoS Pathogens, 2017)", "molecular_target": "the molecule itself", "assay": "SEC", "data": [{"protein": "prion protein (PrP) from 263K-infected Syrian hamster brain (natural protein, also called PrP^Sc; 263K PrP^Sc) not shown", "values": [{"measurement": "stoichiometry N", "result": "~3"}]}]}
